Source: article PMC7596997, “The selectivity filter of the mitochondrial protein import machinery” (BMC Biology, 2020)
No end group written: not given here.

Molecular target: T1, cytosolic domain of yeast Tom70 (His-Tom70_(38–617)) (yeast (Saccharomyces cerevisiae), UniProt P07213 38-617)
T1 construct: Tom70, yeast, cytosolic domain, residues 38-617 of the protein of 617 amino acids; plasmid pET10N-Tom70(38–617); also called Tom70cd; isolated Tom70; source: E. coli BL21(DE3), purified (HisTrap, size exclusion; or Ni-NTA beads, batch method); not shown: His tag, N-terminal, kept
T1 sequence (looked up): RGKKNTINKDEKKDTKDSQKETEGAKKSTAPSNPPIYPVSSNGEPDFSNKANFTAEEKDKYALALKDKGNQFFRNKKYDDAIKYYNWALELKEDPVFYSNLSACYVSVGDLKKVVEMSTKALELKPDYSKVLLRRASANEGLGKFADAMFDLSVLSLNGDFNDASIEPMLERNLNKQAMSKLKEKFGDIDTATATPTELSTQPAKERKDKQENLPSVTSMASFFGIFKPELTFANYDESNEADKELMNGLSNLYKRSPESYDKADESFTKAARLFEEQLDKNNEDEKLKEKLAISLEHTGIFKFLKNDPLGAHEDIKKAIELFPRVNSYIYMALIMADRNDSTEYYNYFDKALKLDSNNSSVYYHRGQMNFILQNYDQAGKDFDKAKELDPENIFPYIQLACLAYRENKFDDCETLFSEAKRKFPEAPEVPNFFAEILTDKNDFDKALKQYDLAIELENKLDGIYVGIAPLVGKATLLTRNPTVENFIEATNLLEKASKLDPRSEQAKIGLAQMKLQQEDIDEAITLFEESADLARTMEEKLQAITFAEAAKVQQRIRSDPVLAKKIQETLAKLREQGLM
Test: pull-down; purified His-Tom70cd (50 pmol per 100 μl) pre-bound to Ni-NTA beads, incubated 40 min at 30 °C with typically 7% (v/v) reticulocyte lysate containing the [35S]-labelled protein; 10 mM MOPS/KOH, 20 mM imidazole, 150 mM KCl, 1% BSA, pH 7.2; eluted with 1 M imidazole, SDS-PAGE, phosphorimager; in some samples the bead-bound Tom70cd was pretreated with NEM and washed before the lysate was added
Conditions: one partner purified

- percent of the total radiolabelled protein bound: < 1%
B1: ML3-DHFR (matrix loop of AAC module III, residues 238–277, fused to DHFR) (domain or fragment, Neurospora crassa, UniProt P02723 238-277, looked up)
chain: PLDTIRRRMMMTSGEAVKYKSSFDAASQIVAKEGVKSLFK
modifications: also: fused to DHFR, [35S]-methionine label
notes: ADP/ATP carrier (AAC), Neurospora crassa, residues 238-277; plasmid pYES2-AAC(238–277)-DHFR; also called the construct containing only the matrix loop; AAC(238–277)-DHFR; source: in vitro translated (TNT coupled reticulocyte lysate, with [35S]-methionine), in lysate
